To fix the notation:
B1: TRIM29 (parent)
chain: FAEKGELRKSIFSESRKPTVSIME
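Further: lentivirally expressed fusions sorted by FACS into six bins by GFP to DsRed ratio, PSI derived from sequencing read proportions per bin multiplied by bin number.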

In the data set the parent is B1. Nature of the data set: protein stability index of a GFP-peptide fusion (GPS, HEK-293T) (PSI 1-6); higher = more stable. As to conditions: c terminus: a fixed tail appended.
Consider FAEKGELRKSITSESRKPTVSIME, for which the protein stability index was 3.54. The figure for FAEKGELRKSINSESRKPTVSIME is 3.43; for FAEKGELRKSIKSESRKPTVSIME it is 3.54. Take FAEKGELRKSIDSESRKPTVSIME: the protein stability index came to 4.25. The figure for FAEKGELRKSIISESRKPTVSIME is 3.39. With FAEKGELRKSIYSESRKPTVSIME the figure was 2.04.

FAEKGELRKSICSESRKPTVSIME: the protein stability index stood at 2.96. With FAEKGELRKSISSESRKPTVSIME the figure was 3.69; with FAEKGELRKSIPSESRKPTVSIME, 3.96. Consider FAEKGELRKSIMSESRKPTVSIME, for which the protein stability index worked out at 3.49.

On to FAEKGELRKSIASESRKPTVSIME, for which the protein stability index was 2.74. Consider FAEKGELRKSIESESRKPTVSIME, for which the protein stability index came to 3.84. Take FAEKGELRKSIVSESRKPTVSIME: the protein stability index was found to be 3.1. Regarding FAEKGELRKSIHSESRKPTVSIME, the protein stability index amounted to 4.04.

On to FAEKGELRKSIQSESRKPTVSIME, for which the protein stability index was 3.72. For the variant FAEKGELRKSIWSESRKPTVSIME, the protein stability index stood at 1.14.

Consider FAEKGELRKSIGSESRKPTVSIME, for which the protein stability index was 2.59. The figure for FAEKGELRKSILSESRKPTVSIME is 2.41. In the case of FAEKGELRKSIRSESRKPTVSIME, the protein stability index worked out at 3.66. The figure for FAEKGELRKMIFSESRKPTVSIME is 2.12.

For the variant FAEKGELRKCIFSESRKPTVSIME, the protein stability index worked out at 1.53. On to FAEKGELRKHIFSESRKPTVSIME, for which the protein stability index worked out at 1.84. With FAEKGELRKTIFSESRKPTVSIME the figure was 1.82; with FAEKGELRKWIFSESRKPTVSIME, 2.35. With FAEKGELRKNIFSESRKPTVSIME the figure was 1.76; with FAEKGELRKDIFSESRKPTVSIME, 2.12; with FAEKGELRKYIFSESRKPTVSIME, 2.04. The figure for FAEKGELRKAIFSESRKPTVSIME is 1.91.

Take FAEKGELRKRIFSESRKPTVSIME: the protein stability index was 1.35. With FAEKGELRKVIFSESRKPTVSIME, the protein stability index amounted to 2.46.

As for FAEKGELRKEIFSESRKPTVSIME, the protein stability index is 2.12. With FAEKGELRKIIFSESRKPTVSIME the figure was 2.48; with FAEKGELRKGIFSESRKPTVSIME, 2. For FAEKGELRKKIFSESRKPTVSIME, the protein stability index was determined as 2.17.

FAEKGELRKFIFSESRKPTVSIME: the protein stability index amounted to 2.32. The figure for FAEKGELRKPIFSESRKPTVSIME is 2.27. With FAEKGELRKQIFSESRKPTVSIME, the protein stability index was determined as 1.52. With FAEKGELRKLIFSESRKPTVSIME the figure was 1.47; with FAEKGELRVSIFSESRKPTVSIME, 2.74. With FAEKGELRYSIFSESRKPTVSIME the figure was 2.36; with FAEKGELRKSIFHESRKPTVSIME, 1.64. With FAEKGELRKSIFLESRKPTVSIME the figure was 1.84; with FAEKGELRKSIFTESRKPTVSIME, 1.87.

With FAEKGELRKSIFMESRKPTVSIME, the protein stability index came to 2.76. The figure for FAEKGELRKSIFEESRKPTVSIME is 2.71. With FAEKGELRKSIFQESRKPTVSIME the figure was 1.75.

FAEKGELRKSIFNESRKPTVSIME: the protein stability index is 1.75. With FAEKGELRKSIFVESRKPTVSIME the figure was 2.58; with FAEKGELRKSIFKESRKPTVSIME, 2.21. With FAEKGELRKSIFDESRKPTVSIME the figure was 2.42; with FAEKGELRKSIFPESRKPTVSIME, 3.18; with FAEKGELRKSIFYESRKPTVSIME, 2.08.

For FAEKGELRKSIFGESRKPTVSIME, the protein stability index was 1.7.

Regarding FAEKGELRKSIFWESRKPTVSIME, the protein stability index stood at 2.55.

For FAEKGELRKSIFRESRKPTVSIME, the protein stability index turned out to be 2.19. The figure for FAEKGELRKSIFCESRKPTVSIME is 1.67; for FAEKGELRKSIFAESRKPTVSIME it is 2.1. The figure for FAEKGELRKSIFIESRKPTVSIME is 1.45; for FAEKGELRKSIFFESRKPTVSIME it is 2.01. The figure for FAEKGELRKSIFSPSRKPTVSIME is 3.31; for FAEKGELRKSIFSISRKPTVSIME it is 2.32.

As to FAEKGELRKSIFSTSRKPTVSIME, the protein stability index was 2.63. With FAEKGELRKSIFSQSRKPTVSIME the figure was 1.54.

In the case of FAEKGELRKSIFSGSRKPTVSIME, the protein stability index is 1.78.

Consider FAEKGELRKSIFSASRKPTVSIME, for which the protein stability index stood at 2.01. The figure for FAEKGELRKSIFSFSRKPTVSIME is 1.85; for FAEKGELRKSIFSCSRKPTVSIME it is 2.21; for FAEKGELRKSIFSRSRKPTVSIME it is 1.49. The figure for FAEKGELRKSIFSLSRKPTVSIME is 1.91; for FAEKGELRKSIFSHSRKPTVSIME it is 2.05. With FAEKGELRKSIFSMSRKPTVSIME the figure was 1.59.

With FAEKGELRKSIFSSSRKPTVSIME, the protein stability index was found to be 2.31. With FAEKGELRKSIFSKSRKPTVSIME the figure was 1.99; with FAEKGELRKSIFSNSRKPTVSIME, 1.95.

With FAEKGELRKSIFSDSRKPTVSIME, the protein stability index is 1.54. With FAEKGELRKSHFSESRKPTVSIME the figure was 2.97.

As for FAEKGELRKSSFSESRKPTVSIME, the protein stability index turned out to be 3.09. With FAEKGELRKSRFSESRKPTVSIME the figure was 2.71; with FAEKGELRKSEFSESRKPTVSIME, 3.26. Turning to FAEKGELRKSLFSESRKPTVSIME, the protein stability index came to 1.9. Take FAEKGELRKSCFSESRKPTVSIME: the protein stability index came out at 1.64. With FAEKGELRKSKFSESRKPTVSIME, the protein stability index turned out to be 3.22.

FAEKGELRKSNFSESRKPTVSIME: the protein stability index came to 3.35. With FAEKGELRKSTFSESRKPTVSIME the figure was 2.65.

As to FAEKGELRKSMFSESRKPTVSIME, the protein stability index was determined as 1.53. With FAEKGELRKSAFSESRKPTVSIME the figure was 2.05. The figure for FAEKGELRKSGFSESRKPTVSIME is 3.92; for FAEKGELRKSWFSESRKPTVSIME it is 2.77; for FAEKGELRKSDFSESRKPTVSIME it is 3.69. As for FAEKGELRKSPFSESRKPTVSIME, the protein stability index was determined as 2.51. The figure for FAEKGELRKSQFSESRKPTVSIME is 3.33; for FAEKGELRKSVFSESRKPTVSIME it is 1.86. With FAEKGELRKSFFSESRKPTVSIME the figure was 2.74; with FAEKGELRKSYFSESRKPTVSIME, 1.7.

Values taken from the supplement of paper PMC10567573.
